According to patent US20140255405A1 (published 2014):

B1: DVD-45 (bispecific antibody, human IgG1, kappa)
heavy: not shown
light: DIVLTQSPASLAVSLGQRATISCRASESVGNFGISFMNWFQQKPGQPPKLLIYTASNQGSGVPARFSGSGSGTDFSLNIHPMEEDDSAMYFCQQSKEIPWTFGGGTKLEIKSPAPNLLGGPAIQMTQSPSSLSASVGDRVTITCQASQSINNELSWYQQKPGKAPKLLIYRASTLASGVPSRFSGSGSGTDFTLTISSLQPDDFATYYCQQGYSLRNIDNAFGGGTKVEIKRTVAAPSVFIFPPSDEQLKSGTASVVCLLNNFYPREAKVQWKVDNALQSGNSQESVTEQDSKDSTYSLSSTLTLSKADYEKHKVYACEVTHQGLSSPVTKSFNRGEC
notes: Bispecific, tetravalent human IgG1 dual variable domain IgG: variable domains of Mab4 appended to the N-termini of the variable domains of Mab5
B2: Mab4 (antibody, human IgG1, kappa)
heavy: not shown
light: DIVLTQSPASLAVSLGQRATISCRASESVGNFGISFMNWFQQKPGQPPKLLIYTASNQGSGVPARFSGSGSGTDFSLNIHPMEEDDSAMYFCQQSKEIPWTFGGGTKVEIKRTVAAPSVFIFPPSDEQLKSGTASVVCLLNNFYPREAKVQWKVDNALQSGNSQESVTEQDSKDSTYSLSSTLTLSKADYEKHKVYACEVTHQGLSSPVTKSFNRGEC
B3: Mab5 (antibody, human IgG1, kappa, V domains shown)
VH: EVQLVESGGGLVQPGGSLRLSCAASGFSLSNYYVTWVRQAPGKGLEWVGIIYGSDETAYATSAIGRFTISRDNSKNTLYLQMNSLRAEDTAVYYCARDDSSDWDAKFNLWGQGTLVTVSS
VL: AIQMTQSPSSLSASVGDRVTITCQASQSINNELSWYQQKPGKAPKLLIYRASTLASGVPSRFSGSGSGTDFTLTISSLQPDDFATYYCQQGYSLRNIDNAFGGGTKVEIKR
B4: Mab4-5L5H (bispecific antibody, human IgG1, kappa)
heavy: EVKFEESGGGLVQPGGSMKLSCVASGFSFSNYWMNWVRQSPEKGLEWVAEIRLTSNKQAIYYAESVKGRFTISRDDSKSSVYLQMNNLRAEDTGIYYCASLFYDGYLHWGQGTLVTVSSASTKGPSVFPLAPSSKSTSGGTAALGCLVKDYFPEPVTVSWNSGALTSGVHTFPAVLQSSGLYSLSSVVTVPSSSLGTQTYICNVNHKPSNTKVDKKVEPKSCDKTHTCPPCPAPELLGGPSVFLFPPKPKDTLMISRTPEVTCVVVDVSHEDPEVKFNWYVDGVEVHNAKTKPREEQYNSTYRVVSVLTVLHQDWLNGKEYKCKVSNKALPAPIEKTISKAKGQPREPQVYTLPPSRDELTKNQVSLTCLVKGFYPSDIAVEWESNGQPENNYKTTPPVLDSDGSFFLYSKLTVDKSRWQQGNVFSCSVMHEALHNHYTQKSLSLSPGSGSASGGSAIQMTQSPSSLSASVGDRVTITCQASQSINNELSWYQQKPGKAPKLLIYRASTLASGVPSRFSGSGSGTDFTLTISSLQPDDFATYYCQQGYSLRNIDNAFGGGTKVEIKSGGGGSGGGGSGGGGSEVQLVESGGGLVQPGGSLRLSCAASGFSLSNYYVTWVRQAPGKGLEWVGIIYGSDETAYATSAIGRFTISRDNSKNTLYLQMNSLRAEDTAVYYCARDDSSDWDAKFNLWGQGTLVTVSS
light: B2 light
notes: Bispecific, tetravalent human IgG1-scFv fusion: Mab5 scFv (VL-VH) fused to the C-terminus of CH3 of Mab4
B5: DVD-D5 (antibody)
heavy: not shown
light: DTQMTQSPSSLSASVGDRVTITCRASQSISSYLAWYQQKPGKAPKLLIYAASSLYSGVPSRFSGSGSGTDFTLTISSLQPEDFATYYCQQYSSLPYTFGQGTKLEIKSPAPNLLGGPAIQMTQSPSSLSASVGDRVTITCQASQSINNELSWYQQKPGKAPKLLIYRASTLASGVPSRFSGSGSGTDFTLTISSLQPDDFATYYCQQGYSLRNIDNAFGGGTKVEIKRTVAAPSVFIFPPSDEQLKSGTASVVCLLNNFYPREAKVQWKVDNALQSGNSQESVTEQDSKDSTYSLSSTLTLSKADYEKHKVYACEVTHQGLSSPVTKSFNRGEC
notes: Monospecific control: dual variable domain human IgG1 like DVD-45 but with the Mab4 VL replaced by a germline-like dummy VL

How the values were obtained:
human IL-6 [1] = target: T1, human IL-6 (human, UniProt P05231 30-212); test: cell-based or functional assay
[2] = target: T2, Human C1q (Calbiochem, 204876) (human, UniProt P02745 23-245; P02746 28-253; P02747 29-245); test: ELISA on coated human C1q; preformed complex of antibody and IL6, 11 nM binding sites; anti-human Fc HRP detection
T2 construct: Bought human C1q coated on ELISA plates; also called complement C1q; complement component C1q
T2 sequence (P02745 23-245 limits assumed, chain 1 of 3): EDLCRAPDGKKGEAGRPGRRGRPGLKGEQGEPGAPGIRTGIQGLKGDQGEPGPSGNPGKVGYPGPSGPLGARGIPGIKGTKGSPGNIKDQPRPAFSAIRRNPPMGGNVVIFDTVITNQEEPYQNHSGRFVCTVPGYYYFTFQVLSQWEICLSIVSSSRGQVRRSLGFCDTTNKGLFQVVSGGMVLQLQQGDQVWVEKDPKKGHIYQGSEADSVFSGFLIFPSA
T2 sequence (P02746 28-253 limits assumed, chain 2 of 3): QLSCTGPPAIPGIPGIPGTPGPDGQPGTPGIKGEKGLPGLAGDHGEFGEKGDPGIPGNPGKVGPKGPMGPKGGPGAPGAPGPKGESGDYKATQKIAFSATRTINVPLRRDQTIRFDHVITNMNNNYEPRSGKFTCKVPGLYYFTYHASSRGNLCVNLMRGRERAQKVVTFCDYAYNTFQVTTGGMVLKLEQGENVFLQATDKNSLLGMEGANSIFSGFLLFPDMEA
T2 sequence (P02747 29-245 limits assumed, chain 3 of 3): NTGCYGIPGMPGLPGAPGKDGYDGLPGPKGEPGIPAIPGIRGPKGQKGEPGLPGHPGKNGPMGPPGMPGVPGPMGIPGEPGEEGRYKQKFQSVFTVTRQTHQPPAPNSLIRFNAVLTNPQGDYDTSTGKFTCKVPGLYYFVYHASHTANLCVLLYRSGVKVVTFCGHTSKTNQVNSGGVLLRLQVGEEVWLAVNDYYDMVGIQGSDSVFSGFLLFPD
Method: (§1) Determination of immune complex binding to complement C1q was performed using ELISA. Human C1q (Calbiochem, 204876) was coated onto maxisorp ELISA plates (NUNC, Denmark) at a concentration of 16 microgram/ml in a buffer containing 10 mM Tris HCl, pH 8 for 1 h and washed twice with 1× phosphate buffered saline supplemented with 0.1% Tween-20 (Merck KGaA, Germany, 8.17072.1000) (PBST). Plates were blocked with 2% skimmed milk powder (Roth, Germany T145.3) in PBST for 30 min and again washed twice with PBST. The prepared plates were then incubated with a preformed complex of antibody and IL6, at an equimolar IL6 and antibody binding site concentration of 11 nM, or with 11 nM antibody incubated without IL6, for 30 min.

[3] = target: T2, Human C1q (Calbiochem, 204876); test: ELISA on coated human C1q; antibody preincubated with equimolar IL6 or without IL6; anti-human Fc HRP detection
Method: as §1

human IL-6 [4] = target: T1, human IL-6; test: inferred from IL6-dependent signal in C1q ELISA; antibody preincubated with equimolar IL6 at 11 nM
Method: as §1

Row | Binder | IC50 on 7TD1 cells (pM) (human IL-6 [1]) | IC50 on B9 cells (pM) (human IL-6 [1]) | binding result [2] | binding result [3] | binding result (human IL-6 [4])
1 | B1 | 1.3 | 2.9 | binds |  | 
2 | B2 | 2.6 | 8.4 |  | no binding (tested: 11 nM) | 
3 | B3 | 19.9 | 26.1 |  |  | 
4 | B4 |  |  | binds |  | binds
5 | B5 |  |  |  | no binding (tested: 11 nM) | 
